Patent US20070014720A1

Legend:
human CD20 (human) [1] = target: human CD20 (human) (UniProt P11836); experiment: FACS KD on SB cells expressing CD20 (GMF against mAb concentration, nonlinear fit)
human CD20 (human) [2] = target: human CD20 (human) (UniProt P11836); experiment: cell-based or functional assay

Sequence of human CD20 (human) (P11836 whole entry): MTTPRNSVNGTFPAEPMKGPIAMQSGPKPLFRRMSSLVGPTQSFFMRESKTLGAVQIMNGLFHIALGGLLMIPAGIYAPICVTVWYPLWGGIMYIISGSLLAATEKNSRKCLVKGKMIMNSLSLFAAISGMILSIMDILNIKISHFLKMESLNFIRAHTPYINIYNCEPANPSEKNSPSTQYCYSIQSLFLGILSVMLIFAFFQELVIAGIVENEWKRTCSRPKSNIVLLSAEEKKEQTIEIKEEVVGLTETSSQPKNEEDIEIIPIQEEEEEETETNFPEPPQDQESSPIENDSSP

| Kd (human CD20 (human) [1]) [nM] | % Lysis Daudi 0.001 µg/ml ADCC (human CD20 (human) [2]) [%] | % Lysis Daudi 1 µg/ml ADCC (human CD20 (human) [2]) [%] | % Lysis Raji 0.001 µg/ml ADCC (human CD20 (human) [2]) [%] | % Lysis Raji 1 µg/ml ADCC (human CD20 (human) [2]) [%] | % Lysis Ramos 0.001 µg/ml ADCC (human CD20 (human) [2]) [%] | % Lysis Ramos 1 µg/ml ADCC (human CD20 (human) [2]) [%] | EC50 µg/ml Daudi CDC (human CD20 (human) [2]) [µg/mL] | EC50 µg/ml Raji CDC (human CD20 (human) [2]) [µg/mL] | EC50 µg/ml Ramos Apoptosis Alamar Blue (human CD20 (human) [2]) [µg/mL] | EC50 µg/ml Ramos Apoptosis Annexin V (human CD20 (human) [2]) [µg/mL] | EC50 µg/ml Ramos Apoptosis Cell Titer Glo (human CD20 (human) [2]) [µg/mL] | EC50 µg/ml Ramos Apoptosis WST-1 (human CD20 (human) [2]) [µg/mL] | EC50 µg/ml Ramos CDC (human CD20 (human) [2]) [µg/mL] | Substance |
| --- | --- | --- | --- | --- | --- | --- | --- | --- | --- | --- | --- | --- | --- | --- |
| 34.1 | – | – | – | – | – | – | – | – | – | – | – | – | – | B1 antibody (Beckman Coulter, Miami, Fla.) |
| 8.1 | 33 | 95 | 16 | 62 | 5 | 78 | 1.56 | 0.31 | 0.222 | 2.59 | 0.576 | 0.0326 | 0.43 | Rituxan (Rituximab, Genentech Inc.) (antibody) |
